± gives the uncertainty stated by the source.
Assay: self-splicing fitness, log relative to wild type (ln ratio); higher = more splicing; Tetrahymena group I intron in knt gene, E. coli kanamycin selection, DiMSum; sequences stand for … in CUCUCU…GGAGGGAAAAGUUAUCAGGCAUGCACCUGGUAGCUAGUCUUUAAACCAAUAGAUUGCAUCGGUUUAAAAGGCAAGACCGUCAAAUUGCGGGAAAGGGGUCAACAGCCGUUCAGUACCAAGUCUCAGGGGAAACUUUGAGAUGGCCUUGCAAAGGGUAUGGUAAUAAGCUGACGGACAUGGUCCUAACCACGCAGCCAAGUCCUAAGUCAACAGAUCUUCUGUUGAUAUGGAUGCAGUUCACAGACUAAAUGUCGGUCGGGGAAGAUGUAUUCUUCUCAUAAGAUAUAGUCGGACCUCUCCUUAAUGGGAGCUAGCGGAUGAAGUGAUGCAACACUGGAGCCGCUGGGAACUAAUUUGUAUGCGAAAGUAUAUUGAUUAGUUUUGGAGUACUCGUGGUCG
Outline: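 Pooled colonies went to amplicon sequencing on an Illumina HiSeq 2500 after six replicate transformations. The plates were LB agar with 100 μg/mL carbenicillin, 50 μM IPTG and 0.2% rhamnose, with or without 25 μg/mL kanamycin, incubated overnight at 37°C or 30°C. The E. coli BL21(DE3) library had all eight P1ex-region intron nucleotides randomised, the intron placed in the knt kanamycin-resistance gene on pET-22b(+). DiMSum fitness is the error-weighted combination of replicate fold changes, kanamycin against none, normalised to wild type.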

| Sequence | self-splicing fitness (ln) (30 °C) | self-splicing fitness (ln) (37 °C) |
| --- | --- | --- |
| CUAUAGCAAUAUUACGGUGG | -3.27 ± 0.24 | -2.22 ± 0.25 |
| CAAGAGCAAUAUUACGGUCA | -2.4 ± 0.19 | -2.45 ± 0.23 |
| CGUUAGCAAUAUUACGACCA | -0.453 ± 0.17 | -0.925 ± 0.2 |
| AUCCAGCAAUAUUACGCCCU | -0.182 ± 0.15 | -0.00746 ± 0.21 |
| CGCUAGCAAUAUUACGGACG | -2.4 ± 0.17 | -0.45 ± 0.17 |
| UCAUAGCAAUAUUACGACAA | -2.43 ± 0.26 | -1.06 ± 0.15 |
| AUGUAGCAAUAUUACGGUCU | -0.562 ± 0.096 | -0.014 ± 0.1 |
| GUGAAGCAAUAUUACGUUAG | -1.06 ± 0.098 | 0.151 ± 0.14 |
| AGGGAGCAAUAUUACGGAGG |  | -1.74 ± 0.43 |
| ACAUAGCAAUAUUACGAACA | 0.105 ± 0.14 | -1.05 ± 0.17 |
| ACCGAGCAAUAUUACGGCCC | -2.37 ± 0.21 | -1.89 ± 0.29 |
| AUAAAGCAAUAUUACGUAUU | -2.73 ± 0.12 | -1.79 ± 0.13 |
| UAUUAGCAAUAUUACGUUCU | -2.64 ± 0.24 | -1.19 ± 0.17 |
| AAACAGCAAUAUUACGGGUA | -2.58 ± 0.093 | -1.31 ± 0.072 |
| CGCAAGCAAUAUUACGUGUA | -2.88 ± 0.13 | -0.494 ± 0.1 |
| UCAAAGCAAUAUUACGAGGC |  | -2.69 ± 0.3 |
| UCCGAGCAAUAUUACGCGGG | -3.02 ± 0.28 | -2.78 ± 0.38 |
| AGGGAGCAAUAUUACGGUAC | -2.99 ± 0.31 | -2.67 ± 0.3 |
| UACUAGCAAUAUUACGGCGC | -1.6 ± 0.28 | -1.55 ± 0.31 |
| CCAGAGCAAUAUUACGGACG | -1.73 ± 0.069 | -0.584 ± 0.085 |
| AGCCAGCAAUAUUACGAAUG |  | -2.45 ± 0.28 |
| CUAGAGCAAUAUUACGUCCG | -0.472 ± 0.087 | -0.0677 ± 0.14 |

| Sequence | self-splicing fitness (ln) (30 °C) | self-splicing fitness (ln) (37 °C) |
| --- | --- | --- |
| UAUCAGCAAUAUUACGCCGG | -0.251 ± 0.22 | 0.843 ± 0.26 |
| CGAAAGCAAUAUUACGGGUA | -2.73 ± 0.16 | -2.57 ± 0.14 |
| AGCCAGCAAUAUUACGGAGC | -2.39 ± 0.1 | -1.83 ± 0.11 |
| AACAAGCAAUAUUACGGACU | -0.217 ± 0.063 | 0.775 ± 0.099 |
| CGGGAGCAAUAUUACGUUUA | -3.47 ± 0.31 | -1.8 ± 0.28 |
| UUCAAGCAAUAUUACGUAGC | -4.06 ± 0.26 | -2.3 ± 0.25 |
| GGGAAGCAAUAUUACGGGAA | -1.55 ± 0.45 | -1.14 ± 0.31 |
| GACAAGCAAUAUUACGUGGA | -3.18 ± 0.16 | -1.42 ± 0.1 |
| CCACAGCAAUAUUACGCAAU | -3.41 ± 0.2 | -2.66 ± 0.25 |
| AAGGAGCAAUAUUACGAUAG | -4.31 ± 0.46 | -2.87 ± 0.43 |
| UAUUAGCAAUAUUACGGAGC | -2.4 ± 0.42 |  |
| AGGGAGCAAUAUUACGCUGC | -3.96 ± 0.29 | -2.35 ± 0.23 |
| CCACAGCAAUAUUACGUCCC | -3.18 ± 0.43 | -2.06 ± 0.4 |
| AACAAGCAAUAUUACGUGCU | -2.57 ± 0.16 | -1.51 ± 0.14 |
| AUUAAGCAAUAUUACGCCAG | -2.09 ± 0.15 | -1.51 ± 0.22 |
| AUGUAGCAAUAUUACGACGG | -2.09 ± 0.18 | -1.5 ± 0.17 |
| UGCCAGCAAUAUUACGAAAA | -2 ± 0.17 | -1.24 ± 0.14 |
| UCGCAGCAAUAUUACGUGGG | -4.4 ± 0.36 | -2.53 ± 0.14 |
| AAGGAGCAAUAUUACGCACA |  | -1.89 ± 0.47 |
| CCCGAGCAAUAUUACGCAGC |  | -2.05 ± 0.42 |
| CAUCAGCAAUAUUACGACCG | -0.142 ± 0.086 | 0.366 ± 0.12 |
| ACAAAGCAAUAUUACGUCAA | -3.26 ± 0.25 | -1.66 ± 0.14 |

— the supplement of paper PMC7877785
